Data from patent US20200164064A1 (Hoffmann-La Roche, published 2020).

Target: T1, Ac-PYY(PEG3-Dig) (N-terminal acetyl; Lys 2 side chain carries PEG3-digoxigenin (digoxigenin-3-carboxymethyl on 12-amino-4,7,10-trioxadodecanoic acid); Pqa at position 3; N-methyl-Arg at position 14; C-terminal amide)
T1 construct: also called DIG-PYY; Dig-PYY
T1 peptide: IKXRHYLNWVTRQXY
Test: size exclusion chromatography and SEC-MALS of the non-covalent complex
Experimental: After completion of the complexation reaction, the complexes were purified by size exclusion chromatography via a Superdex 200 26/60 GL column (320 ml) in 20 mM histidine, 140 mM NaCl, at pH 6.0 at a flow rate of 2.5 ml/min. […] Polypeptide and antibody were incubated for 1.5 hrs. at room temperature. The excess of polypeptide was removed by size exclusion chromatography via a Superose 6 10/300 GL column in 20 mM histidine, 140 mM NaCl, at pH 6.0 at a flow rate of 0.5 ml/min.
For SEC-MALS analysis, 100-500 μg of the respective sample was applied to a Superdex 200 10/300 GL size exclusion column with a flow rate of 0.25-0.5 ml/min with 1×PBS pH 7.4 as mobile phase. Light scattering was detected with a Wyatt miniDawn TREOS/QELS detector, the refractive index was measured with a Wyatt Optilab rEX-detector. Resulting data was analyzed using the software ASTRA (version 5.3.4.14).

B1: murine anti-digoxigenin antibody (hybridoma-derived) (antibody, mouse IgG1, V domains shown)
VH: EVQLVESGGGLVKPGGSLKLSCAVSGFTFSDYAMSWIRQTPENRLEWVASINIGATYAYYPDSVKGRFTISRDNAKNTLFLQMSSLGSEDTAMYYCARPGSPYEYDKAYYSMAYWGPGTSVTVSS
VL: DVQMTQSTSSLSASLGDRVTISCRASQDIKNYLNWYQQKPGGTVKLLIYYSSTLLSGVPSRFSGRGSGTDFSLTITNLEREDIATYFCQQSITLPPTFGGGTKLEIK
notes: also called murine hybridoma-derived antibody
binding result: binds
